In US20160264649A1:

Columns and labels:
Assay in all cases: cell-based or functional assay
[1] = target: HIV-1 Env of isolate 92UG001 (subtype D) (HIV-1)
[2] = target: HIV-1 Env of isolate MGRM-Chronic-B-012 (subtype B) (HIV-1)
[3] = target: HIV-1 Env of isolate MGRM-D-024 (subtype D) (HIV-1)
[4] = target: HIV-1 Env of isolate MGRM-D-021 (subtype D) (HIV-1)
[5] = target: HIV-1 Env of isolate MG RM-C-020 (subtype C) (HIV-1)
[6] = target: HIV-1 Env of pseudovirus isolate MGRM-G-013 (subtype G) (HIV-1)
[7] = target: HIV-1 Env of isolate 93WR029 (subtype A) (HIV-1)
[8] = target: HIV-1 Env of pseudovirus isolate MGRM-G-004 (subtype G) (HIV-1)
[9] = target: HIV-1 Env of isolate 92WR026 (subtype A) (HIV-1)
[10] = target: HIV-1 Env of isolate MG RM-C-023 (subtype C) (HIV-1)
[11] = target: HIV-1 Env of isolate MGRM-AE-006 (subtype AE) (HIV-1)
[12] = target: HIV-1 Env of isolate MGRM-Chronic-B-001 (subtype B) (HIV-1)
[13] = target: HIV-1 Env of isolate MGRM-AE-007 (subtype AE) (HIV-1)
[14] = target: HIV-1 Env of isolate 92UG024 (subtype D) (HIV-1)
[15] = target: HIV-1 Env of isolate MGRM-D-022 (subtype D) (HIV-1)
[16] = target: HIV-1 Env of pseudovirus isolate MGRM-G-027 (subtype G) (HIV-1)
[17] = target: HIV-1 Env of isolate MGRM-D-001 (subtype D) (HIV-1)
[18] = target: HIV-1 Env of isolate 92 BR 020 (subtype B) (HIV-1)
[19] = target: HIV-1 Env of isolate 92UG037 (subtype A) (HIV-1)
[20] = target: HIV-1 Env of isolate MGRM-F1-023 (subtype F) (HIV-1)
[21] = target: HIV-1 Env of isolate 98CN006 (subtype CRF08_BC) (HIV-1)
[22] = target: HIV-1 Env of pseudovirus isolate MGRM-G-024 (subtype G) (HIV-1)
[23] = target: HIV-1 Env of isolate MGRM-Chronic-B-003 (subtype B) (HIV-1)
[24] = target: HIV-1 Env of isolate MGRM-Chronic-B-011 (subtype B) (HIV-1)
[25] = target: HIV-1 Env of isolate SF162 (subtype B) (HIV-1) (UniProt P19550)
[26] = target: HIV-1 Env of isolate MGRM-D-018 (subtype D) (HIV-1)
[27] = target: HIV-1 Env of isolate QH0692.42 (subtype B) (HIV-1)
[28] = target: HIV-1 Env of isolate MGRM-F1-014 (subtype F) (HIV-1)
[29] = target: HIV-1 Env of isolate 92UG005 (subtype D) (HIV-1)
[30] = target: HIV-1 Env of isolate JRCSF (subtype B) (HIV-1) (UniProt P20871)
[31] = target: HIV-1 Env of isolate MGRM-F1-015 (subtype F) (HIV-1)
[32] = target: HIV-1 Env of isolate 92TH021 (subtype AE) (HIV-1)
[33] = target: HIV-1 Env of isolate MG RM-C-019 (subtype C) (HIV-1)
[34] = target: HIV-1 Env of isolate MGRM-F1-008 (subtype F) (HIV-1)
[35] = target: HIV-1 Env of isolate MGRM-AE-005 (subtype AE) (HIV-1)
[36] = target: envelope of aMLV pseudovirus (negative control)
[37] = target: HIV-1 Env of isolate MGRM-Chronic-B-018 (subtype B) (HIV-1)
[38] = target: HIV-1 Env of isolate MGRM-D-029 (subtype D) (HIV-1)
[39] = target: HIV-1 Env of isolate APV_6 (subtype B) (HIV-1)
[40] = target: HIV-1 Env of isolate 98IN022 (subtype C) (HIV-1)
[41] = target: HIV-1 Env of isolate CMU02 (subtype AE) (HIV-1)
[42] = target: HIV-1 Env of isolate MGRM-AE-003 (subtype AE) (HIV-1)
[43] = target: HIV-1 Env of isolate APV_13 (subtype B) (HIV-1)
[44] = target: HIV-1 Env of isolate NL43 (subtype B) (HIV-1)
[45] = target: HIV-1 Env of isolate MGRM-F1-022 (subtype F) (HIV-1)
HIV-1 ADA Env (HIV-1) = target: HIV-1 ADA Env (HIV-1)
[46] = target: HIV-1 JR-CSF Env (wild-type) (HIV-1) (UniProt P20871)

Chain of 1443_C16 (PG16) (TCN-116) (antibody) (VH): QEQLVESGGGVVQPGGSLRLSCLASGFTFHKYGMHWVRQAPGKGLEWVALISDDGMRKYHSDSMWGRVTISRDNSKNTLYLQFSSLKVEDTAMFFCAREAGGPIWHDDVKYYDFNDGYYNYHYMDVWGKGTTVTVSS
Chain of 1443_C16 (PG16) (TCN-116) (antibody) (VL): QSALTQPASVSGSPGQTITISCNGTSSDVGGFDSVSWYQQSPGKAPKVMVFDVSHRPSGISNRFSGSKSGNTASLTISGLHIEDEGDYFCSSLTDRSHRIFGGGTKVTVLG

In the case of PGV04 (antibody), the IC50 (neutralization) [1] is reported as 0.553 µg/mL, the IC50 [2] is reported as > 50 µg/mL and the IC50 (pseudovirus neutralization) [3] is reported as > 50 µg/mL. The IC50 (pseudovirus neutralization) [4] was > 50 µg/mL, the IC50 (µg/mL), pseudovirus neutralization [5] was 0.112 µg/mL and the IC50 [6] was 0.168 µg/mL. The IC50 (pseudovirus neutralization) [7] was 0.54 µg/mL, the IC50 [8] was > 50 µg/mL and the IC50 (pseudovirus neutralization) [9] was 0.14 µg/mL. For the same substance, the IC50 (µg/mL), pseudovirus neutralization [10] was 0.128 µg/mL, the IC50 (pseudovirus neutralization) [11] was > 50 µg/mL and the IC50 [12] was 0.048 µg/mL. For the same substance, the IC50 (pseudovirus neutralization) [13] was 5.75 µg/mL, the IC50 (neutralization) [14] was 0.201 µg/mL and the IC50 (pseudovirus neutralization) [15] was > 50 µg/mL. The IC50 [16] was 0.125 µg/mL, the IC50 (pseudovirus neutralization) [17] was > 50 µg/mL and the IC50 [18] was 0.25 µg/mL. The IC50 (pseudovirus neutralization) [19] was 0.145 µg/mL, the IC50 (pseudovirus neutralization) [20] was 0.171 µg/mL and the IC50 (neutralization) [21] was 1.32 µg/mL. It also gave an IC50 [22] of 0.033 µg/mL, an IC50 [23] of 0.258 µg/mL and an IC50 [24] of 0.497 µg/mL. The IC50 (µg/mL), pseudovirus neutralization [25] was 0.028 µg/mL, the IC50 (pseudovirus neutralization) [26] was 17.5 µg/mL and the IC50 [27] was 1.9 µg/mL. The IC50 (pseudovirus neutralization) [28] was 0.02 µg/mL, the IC50 (neutralization) [29] was 0.44 µg/mL and the IC50 (µg/mL), pseudovirus neutralization [30] was 0.078 µg/mL. The IC50 (pseudovirus neutralization) [31] was 0.179 µg/mL, the IC50 (pseudovirus neutralization) [32] was 1.29 µg/mL and the IC50 (µg/mL), pseudovirus neutralization [33] was 9.63 µg/mL. The IC50 (pseudovirus neutralization) [34] was 1.03 µg/mL, the IC50 (pseudovirus neutralization) [35] was 0.051 µg/mL and the IC50 [36] was > 50 µg/mL. For the same substance, the IC50 [37] was 0.164 µg/mL, the IC50 (pseudovirus neutralization) [38] was 1.56 µg/mL and the IC50 [39] was 24.2 µg/mL. The IC50 (µg/mL), pseudovirus neutralization [40] was 5.69 µg/mL, the IC50 (pseudovirus neutralization) [41] was 1.24 µg/mL and the IC50 (pseudovirus neutralization) [42] was 6.4 µg/mL. For the same substance, the IC50 [43] was 1.23 µg/mL, the IC50 (µg/mL), pseudovirus neutralization [44] was 0.028 µg/mL and the IC50 (pseudovirus neutralization) [45] was 0.072 µg/mL.
Work on 1496_C09 (PG9) (TCN-109) (antibody) yielded an IC50 [2] of 0.2 µg/mL, an IC50 (pseudovirus neutralization) [3] of 0.038 µg/mL and an IC50 (pseudovirus neutralization) [7] of 0.69 µg/mL. It also gave an IC50 (pseudovirus neutralization) [9] of 0.164 µg/mL, an IC50 (µg/mL), pseudovirus neutralization [10] of 0.614 µg/mL and an IC50 (pseudovirus neutralization) [11] of 0.063 µg/mL. It also gave an IC50 (pseudovirus neutralization) [13] of 0.18 µg/mL, an IC50 (neutralization) [14] of 1.86 µg/mL and an IC50 [16] of 0.007 µg/mL. For the same substance, the IC50, TZM-bl pseudovirus neutralization (HIV-1 ADA Env (HIV-1)) was 0.2 µg/mL, the IC50 [22] was 0.163 µg/mL and the IC50 (µg/mL), pseudovirus neutralization [30] was 0.003 µg/mL. For the same substance, the IC50 (pseudovirus neutralization) [32] was 0.059 µg/mL, the IC50, TZM-bl pseudovirus neutralization [46] was 0.006 µg/mL and the IC50 (µg/mL), pseudovirus neutralization [33] was 0.005 µg/mL. It also gave an IC50 (pseudovirus neutralization) [35] of 0.282 µg/mL, an IC50 [37] of 0.216 µg/mL and an IC50 [39] of 0.181 µg/mL. It also gave an IC50 (µg/mL), pseudovirus neutralization [40] of 0.003 µg/mL and an IC50 (pseudovirus neutralization) [42] of 0.044 µg/mL.
For VRC01 (antibody), the IC50 (neutralization) [1] was 1.16 µg/mL, the IC50 [2] was 1.03 µg/mL and the IC50 (pseudovirus neutralization) [3] was 0.366 µg/mL. It also gave an IC50 (pseudovirus neutralization) [4] of 33.4 µg/mL, an IC50 [5] of 0.396 µg/mL and an IC50 [6] of 0.553 µg/mL. The IC50 (pseudovirus neutralization) [7] was 1.57 µg/mL, the IC50 [8] was > 50 µg/mL and the IC50 [10] was 0.077 µg/mL. For the same substance, the IC50 (pseudovirus neutralization) [11] was 4.65 µg/mL, the IC50 [12] was 0.066 µg/mL and the IC50 (pseudovirus neutralization) [13] was 0.835 µg/mL. For the same substance, the IC50 (neutralization) [14] was 0.576 µg/mL, the IC50 (pseudovirus neutralization) [15] was > 50 µg/mL and the IC50 [16] was 0.36 µg/mL. For the same substance, the IC50 (pseudovirus neutralization) [17] was > 50 µg/mL, the IC50 [18] was 0.29 µg/mL and the IC50 (pseudovirus neutralization) [19] was 0.245 µg/mL. For the same substance, the IC50 (pseudovirus neutralization) [20] was 0.392 µg/mL, the IC50 (neutralization) [21] was 0.644 µg/mL and the IC50 [22] was 0.025 µg/mL. For the same substance, the IC50 [23] was 0.1 µg/mL, the IC50 [24] was 0.587 µg/mL and the IC50 [25] was 0.421 µg/mL. For the same substance, the IC50 (pseudovirus neutralization) [26] was > 50 µg/mL, the IC50 [27] was 1.19 µg/mL and the IC50 (pseudovirus neutralization) [28] was 0.056 µg/mL. It also gave an IC50 (neutralization) [29] of 0.576 µg/mL, an IC50 [30] of 0.164 µg/mL and an IC50 (pseudovirus neutralization) [31] of 0.387 µg/mL. For the same substance, the IC50 (pseudovirus neutralization) [32] was 0.616 µg/mL, the IC50 [33] was 1.13 µg/mL and the IC50 (pseudovirus neutralization) [34] was 1.11 µg/mL. The IC50 (pseudovirus neutralization) [35] was 0.029 µg/mL, the IC50 [36] was > 50 µg/mL and the IC50 [37] was 0.328 µg/mL. It also gave an IC50 (pseudovirus neutralization) [38] of 3.22 µg/mL, an IC50 [39] of 1.81 µg/mL and an IC50 [40] of 0.342 µg/mL. For the same substance, the IC50 (pseudovirus neutralization) [41] was 0.515 µg/mL, the IC50 (pseudovirus neutralization) [42] was 0.685 µg/mL and the IC50 [43] was 0.657 µg/mL. The IC50 [44] was 0.1 µg/mL and the IC50 (pseudovirus neutralization) [45] was 0.055 µg/mL.
Work on 1443_C16 (PG16) (TCN-116) (antibody) yielded an IC50, TZM-bl pseudovirus neutralization (HIV-1 ADA Env (HIV-1)) of 0.004 µg/mL and an IC50, TZM-bl pseudovirus neutralization [46] of 0.001 µg/mL.
